Key:
Spc97 = biological target: T1, Spc97 (S. cerevisiae, UniProt P38863 1-823); assay: cross-linking
T1 sequence: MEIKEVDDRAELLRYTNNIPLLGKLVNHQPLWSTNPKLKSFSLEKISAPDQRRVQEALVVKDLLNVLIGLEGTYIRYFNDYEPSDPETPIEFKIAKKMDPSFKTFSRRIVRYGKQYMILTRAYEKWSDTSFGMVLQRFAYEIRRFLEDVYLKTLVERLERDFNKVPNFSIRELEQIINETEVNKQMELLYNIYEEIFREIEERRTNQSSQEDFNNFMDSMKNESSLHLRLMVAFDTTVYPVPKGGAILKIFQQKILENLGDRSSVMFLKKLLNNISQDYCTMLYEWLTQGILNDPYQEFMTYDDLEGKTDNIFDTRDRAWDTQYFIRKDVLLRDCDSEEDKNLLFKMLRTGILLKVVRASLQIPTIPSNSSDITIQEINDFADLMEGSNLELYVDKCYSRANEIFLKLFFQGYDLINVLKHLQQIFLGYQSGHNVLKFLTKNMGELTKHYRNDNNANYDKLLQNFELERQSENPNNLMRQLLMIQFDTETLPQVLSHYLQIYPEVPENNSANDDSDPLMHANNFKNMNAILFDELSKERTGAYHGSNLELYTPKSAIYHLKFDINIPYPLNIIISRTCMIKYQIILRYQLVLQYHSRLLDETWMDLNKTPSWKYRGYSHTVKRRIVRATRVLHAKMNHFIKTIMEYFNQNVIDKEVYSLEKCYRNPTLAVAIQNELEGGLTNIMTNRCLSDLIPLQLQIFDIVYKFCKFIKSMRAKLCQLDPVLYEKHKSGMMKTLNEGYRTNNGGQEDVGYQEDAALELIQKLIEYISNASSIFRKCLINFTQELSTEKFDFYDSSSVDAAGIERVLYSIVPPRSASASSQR

Spc98 = biological target: T2, Spc98 (S. cerevisiae, UniProt P53540 1-846); assay: cross-linking
T2 sequence: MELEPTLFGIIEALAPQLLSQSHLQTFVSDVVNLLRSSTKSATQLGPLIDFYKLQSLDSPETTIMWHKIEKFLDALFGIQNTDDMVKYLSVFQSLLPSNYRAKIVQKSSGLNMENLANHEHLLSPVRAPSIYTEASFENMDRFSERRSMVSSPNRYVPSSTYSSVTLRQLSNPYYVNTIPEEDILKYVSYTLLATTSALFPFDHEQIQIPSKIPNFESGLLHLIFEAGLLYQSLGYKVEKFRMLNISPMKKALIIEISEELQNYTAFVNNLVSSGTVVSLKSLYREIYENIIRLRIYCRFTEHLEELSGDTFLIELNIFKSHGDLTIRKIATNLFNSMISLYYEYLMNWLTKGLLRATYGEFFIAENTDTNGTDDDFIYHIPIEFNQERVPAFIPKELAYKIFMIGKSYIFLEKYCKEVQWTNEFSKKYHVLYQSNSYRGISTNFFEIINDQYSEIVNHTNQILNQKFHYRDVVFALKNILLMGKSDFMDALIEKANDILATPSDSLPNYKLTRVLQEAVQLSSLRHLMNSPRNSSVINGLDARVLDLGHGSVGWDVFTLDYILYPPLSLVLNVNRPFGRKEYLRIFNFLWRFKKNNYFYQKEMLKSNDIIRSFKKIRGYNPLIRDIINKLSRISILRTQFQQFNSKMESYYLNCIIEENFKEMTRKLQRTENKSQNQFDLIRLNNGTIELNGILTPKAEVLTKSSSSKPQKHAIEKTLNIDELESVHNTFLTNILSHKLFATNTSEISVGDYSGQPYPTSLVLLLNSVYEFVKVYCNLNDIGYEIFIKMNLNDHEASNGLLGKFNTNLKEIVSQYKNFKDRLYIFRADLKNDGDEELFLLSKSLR

binding result (Spc97): binds
binding result (Spc98): binds
B1: Spc110^1-401-GST (domain or fragment, S. cerevisiae, UniProt P32380 1-401, looked up)
chain: MDEASHLPNGSLKNMEFTPVGFIKSKRNTTQTQVVSPTKVPNANNGDENEGPVKKRQRRSIDDTIDSTRLFSEASQFDDSFPEIKANIPPSPRSGNVDKSRKRNLIDDLKKDVPMSQPLKEQEVREHQMKKERFDRALESKLLGKRHITYANSDISNKELYINEIKSLKHEIKELRKEKNDTLNNYDTLEEETDDLKNRLQALEKELDAKNKIVNSRKVDDHSGCIEEREQMERKLAELERKLKTVKDQVLELENNSDVQSLKLRSKEDELKNLMNELNELKSNAEEKDTQLEFKKNELRKRTNELNELKIKSDEMDLQLKQKQNESKRLKDELNELETKFSENGSQSSAKENELKMLKNKIAELEEEISTKNSQLIAKEGKLASLMAQLTQLESKLNQRD
